Source: US20210238260

Tests used:
[1] = target: Factor X (FX), P00742
[2] = target: Factor X, P00742
[3] = target: plasma purified human AT-III (antithrombin III); test: AT-III/UFH inhibition K0.5, ratio to Catalyst Biosciences WT FIXa
[4] = target: plasma purified human antithrombin III (AT-III), as complex with unfractionated heparin; test: ratio of K0.5 (lower limit) to Catalyst Biosciences WT FIXa, AT-III/UFH inhibition

Sequence of Factor X, P00742 (P00742 whole entry, looked up): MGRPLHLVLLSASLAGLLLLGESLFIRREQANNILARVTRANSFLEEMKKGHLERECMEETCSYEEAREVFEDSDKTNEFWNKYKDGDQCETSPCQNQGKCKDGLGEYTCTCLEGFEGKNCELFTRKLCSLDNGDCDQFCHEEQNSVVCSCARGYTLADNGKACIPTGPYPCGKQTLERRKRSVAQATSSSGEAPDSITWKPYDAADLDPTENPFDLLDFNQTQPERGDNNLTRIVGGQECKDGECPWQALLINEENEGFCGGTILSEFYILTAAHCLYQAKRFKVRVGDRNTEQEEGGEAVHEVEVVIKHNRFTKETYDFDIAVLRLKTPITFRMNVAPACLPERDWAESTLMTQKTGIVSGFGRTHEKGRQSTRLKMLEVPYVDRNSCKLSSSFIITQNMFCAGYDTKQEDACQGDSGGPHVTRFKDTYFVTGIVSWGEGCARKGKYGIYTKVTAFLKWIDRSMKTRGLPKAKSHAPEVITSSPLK
Sequence of Factor X (FX), P00742 (P00742 whole entry, looked up): as above

Protein | % of WT kcat/KM [1] [%] | kcat [1] [s⁻¹] | kcat/KM [1] [M⁻¹ s⁻¹] | % of WT kcat/KM [2] [%] | KM [2] [µM] | kcat/KM [2] [M⁻¹ s⁻¹] | K0.5-mut/K0.5-wt [3] | K0.5-mut/K0.5-wt [4] | KM [1] [µM] | kcat of FX activation by FIXa (Xase complex with FVIIIa, PC/PS vesicles, Ca2+) [1] [s⁻¹] | kcat [2] [s⁻¹]
FIXa-Y155F/K228N/R318Y/R338E/R403E/E410N (protein) chain 1: YNSGKLEEFVQGNLERECMEEKCSFEEAREVFENTERTTEFWKQYVDGDQCESNPCLNGGSCKDDINSYECWCPFGFEGKNCELDVTCNIKNGRCEQFCKNSADNKVVCSCTEGYRLAENQKSCEPAVPFPCGRVSVSQTSKLTR chain 2: VVGGEDAKPGQFPWQVVLNGKVDAFCGGSIVNEKWIVTAAHCVETGVNITVVAGEHNIEETEHTEQKRNVIRIIPHHNYNAAINKYNHDIALLELDEPLVLNSYVTPICIADKEYTNIFLKFGSGYVSGWGRVFHKGYSALVLQYLRVPLVDRATCLESTKFTIYNNMFCAGFHEGGRDSCQGDSGGPHVTEVEGTSFLTGIISWGEECAMKGKYGIYTKVSEYVNWIKNKTKLT | 356 | 9.7 | 1.6e+08 | 453 | 0.048 | 2e+08 | > 517 | 517 |  |  | 
FIXa-D85N/K228N/R318Y/R338E/R403E/E410N (protein) chain 1: YNSGKLEEFVQGNLERECMEEKCSFEEAREVFENTERTTEFWKQYVDGDQCESNPCLNGGSCKDDINSYECWCPFGFEGKNCELNVTCNIKNGRCEQFCKNSADNKVVCSCTEGYRLAENQKSCEPAVPFPCGRVSVSQTSKLTR chain 2: VVGGEDAKPGQFPWQVVLNGKVDAFCGGSIVNEKWIVTAAHCVETGVNITVVAGEHNIEETEHTEQKRNVIRIIPHHNYNAAINKYNHDIALLELDEPLVLNSYVTPICIADKEYTNIFLKFGSGYVSGWGRVFHKGYSALVLQYLRVPLVDRATCLESTKFTIYNNMFCAGFHEGGRDSCQGDSGGPHVTEVEGTSFLTGIISWGEECAMKGKYGIYTKVSEYVNWIKNKTKLT | 336 | 6 | 1.6e+08 | 346 | 0.0393 | 1.6e+08 | > 517 | 517 |  |  | 
FIXa-R318Y/R338E/N346D/R403E/E410N (protein) chain 1: YNSGKLEEFVQGNLERECMEEKCSFEEAREVFENTERTTEFWKQYVDGDQCESNPCLNGGSCKDDINSYECWCPFGFEGKNCELDVTCNIKNGRCEQFCKNSADNKVVCSCTEGYRLAENQKSCEPAVPFPCGRVSVSQTSKLTR chain 2: VVGGEDAKPGQFPWQVVLNGKVDAFCGGSIVNEKWIVTAAHCVETGVKITVVAGEHNIEETEHTEQKRNVIRIIPHHNYNAAINKYNHDIALLELDEPLVLNSYVTPICIADKEYTNIFLKFGSGYVSGWGRVFHKGYSALVLQYLRVPLVDRATCLESTKFTIYDNMFCAGFHEGGRDSCQGDSGGPHVTEVEGTSFLTGIISWGEECAMKGKYGIYTKVSEYVNWIKNKTKLT |  |  |  |  |  |  | > 517 | 517 | 0.0777 | 2.5 | 
FIXa-D104N/K106S/K247N/N249S/R318Y/R338E/R403E/E410N (protein) chain 1: YNSGKLEEFVQGNLERECMEEKCSFEEAREVFENTERTTEFWKQYVDGDQCESNPCLNGGSCKDDINSYECWCPFGFEGKNCELDVTCNIKNGRCEQFCKNSANNSVVCSCTEGYRLAENQKSCEPAVPFPCGRVSVSQTSKLTR chain 2: VVGGEDAKPGQFPWQVVLNGKVDAFCGGSIVNEKWIVTAAHCVETGVKITVVAGEHNIEETEHTEQNRSVIRIIPHHNYNAAINKYNHDIALLELDEPLVLNSYVTPICIADKEYTNIFLKFGSGYVSGWGRVFHKGYSALVLQYLRVPLVDRATCLESTKFTIYNNMFCAGFHEGGRDSCQGDSGGPHVTEVEGTSFLTGIISWGEECAMKGKYGIYTKVSEYVNWIKNKTKLT | 192 | 5.2 | 8.8e+07 | 197 | 0.059 | 8.8e+07 | > 517 | 517 |  |  | 
FIXa-Y155F/I251S/R318Y/R338E/R403E/E410N (protein) chain 1: YNSGKLEEFVQGNLERECMEEKCSFEEAREVFENTERTTEFWKQYVDGDQCESNPCLNGGSCKDDINSYECWCPFGFEGKNCELDVTCNIKNGRCEQFCKNSADNKVVCSCTEGYRLAENQKSCEPAVPFPCGRVSVSQTSKLTR chain 2: VVGGEDAKPGQFPWQVVLNGKVDAFCGGSIVNEKWIVTAAHCVETGVKITVVAGEHNIEETEHTEQKRNVSRIIPHHNYNAAINKYNHDIALLELDEPLVLNSYVTPICIADKEYTNIFLKFGSGYVSGWGRVFHKGYSALVLQYLRVPLVDRATCLESTKFTIYNNMFCAGFHEGGRDSCQGDSGGPHVTEVEGTSFLTGIISWGEECAMKGKYGIYTKVSEYVNWIKNKTKLT | 363 | 7.2 | 1.7e+08 | 374 | 0.0433 | 1.7e+08 | > 517 | 517 |  |  | 
FIXa-R318Y/R338E/R403E/E410S (protein) chain 1: YNSGKLEEFVQGNLERECMEEKCSFEEAREVFENTERTTEFWKQYVDGDQCESNPCLNGGSCKDDINSYECWCPFGFEGKNCELDVTCNIKNGRCEQFCKNSADNKVVCSCTEGYRLAENQKSCEPAVPFPCGRVSVSQTSKLTR chain 2: VVGGEDAKPGQFPWQVVLNGKVDAFCGGSIVNEKWIVTAAHCVETGVKITVVAGEHNIEETEHTEQKRNVIRIIPHHNYNAAINKYNHDIALLELDEPLVLNSYVTPICIADKEYTNIFLKFGSGYVSGWGRVFHKGYSALVLQYLRVPLVDRATCLESTKFTIYNNMFCAGFHEGGRDSCQGDSGGPHVTEVEGTSFLTGIISWGEECAMKGKYGIYTKVSEYVNWIKSKTKLT | 458 | 5.8 | 2.1e+08 | 401 | 0.0351 | 1.8e+08 | > 517 | 517 |  | 7.4 | 
FIXa-R318Y/R338E/R403E/E410N/T412V (protein) chain 1: YNSGKLEEFVQGNLERECMEEKCSFEEAREVFENTERTTEFWKQYVDGDQCESNPCLNGGSCKDDINSYECWCPFGFEGKNCELDVTCNIKNGRCEQFCKNSADNKVVCSCTEGYRLAENQKSCEPAVPFPCGRVSVSQTSKLTR chain 2: VVGGEDAKPGQFPWQVVLNGKVDAFCGGSIVNEKWIVTAAHCVETGVKITVVAGEHNIEETEHTEQKRNVIRIIPHHNYNAAINKYNHDIALLELDEPLVLNSYVTPICIADKEYTNIFLKFGSGYVSGWGRVFHKGYSALVLQYLRVPLVDRATCLESTKFTIYNNMFCAGFHEGGRDSCQGDSGGPHVTEVEGTSFLTGIISWGEECAMKGKYGIYTKVSEYVNWIKNKVKLT |  |  |  | 424 |  | 1.9e+08 | > 517 | 517 | 0.0443 | 7 | 7.9
FIXa-I251S/R318Y/R338E/R403E/E410N (protein) chain 1: YNSGKLEEFVQGNLERECMEEKCSFEEAREVFENTERTTEFWKQYVDGDQCESNPCLNGGSCKDDINSYECWCPFGFEGKNCELDVTCNIKNGRCEQFCKNSADNKVVCSCTEGYRLAENQKSCEPAVPFPCGRVSVSQTSKLTR chain 2: VVGGEDAKPGQFPWQVVLNGKVDAFCGGSIVNEKWIVTAAHCVETGVKITVVAGEHNIEETEHTEQKRNVSRIIPHHNYNAAINKYNHDIALLELDEPLVLNSYVTPICIADKEYTNIFLKFGSGYVSGWGRVFHKGYSALVLQYLRVPLVDRATCLESTKFTIYNNMFCAGFHEGGRDSCQGDSGGPHVTEVEGTSFLTGIISWGEECAMKGKYGIYTKVSEYVNWIKNKTKLT | 334 | 4.8 | 1.5e+08 | 344 | 0.0334 | 1.5e+08 | > 517 | 517 |  |  | 
FIXa-Y155F/K247N/N249S/R318Y/R338E/R403E/E410N (protein) chain 1: YNSGKLEEFVQGNLERECMEEKCSFEEAREVFENTERTTEFWKQYVDGDQCESNPCLNGGSCKDDINSYECWCPFGFEGKNCELDVTCNIKNGRCEQFCKNSADNKVVCSCTEGYRLAENQKSCEPAVPFPCGRVSVSQTSKLTR chain 2: VVGGEDAKPGQFPWQVVLNGKVDAFCGGSIVNEKWIVTAAHCVETGVKITVVAGEHNIEETEHTEQNRSVIRIIPHHNYNAAINKYNHDIALLELDEPLVLNSYVTPICIADKEYTNIFLKFGSGYVSGWGRVFHKGYSALVLQYLRVPLVDRATCLESTKFTIYNNMFCAGFHEGGRDSCQGDSGGPHVTEVEGTSFLTGIISWGEECAMKGKYGIYTKVSEYVNWIKNKTKLT | 405 | 6.5 | 1.9e+08 | 408 | 0.0391 | 1.8e+08 | > 517 | 517 |  |  | 
FIXa-K228N/K247N/N249S/R318Y/R338E/R403E/E410N (protein) chain 1: YNSGKLEEFVQGNLERECMEEKCSFEEAREVFENTERTTEFWKQYVDGDQCESNPCLNGGSCKDDINSYECWCPFGFEGKNCELDVTCNIKNGRCEQFCKNSADNKVVCSCTEGYRLAENQKSCEPAVPFPCGRVSVSQTSKLTR chain 2: VVGGEDAKPGQFPWQVVLNGKVDAFCGGSIVNEKWIVTAAHCVETGVNITVVAGEHNIEETEHTEQNRSVIRIIPHHNYNAAINKYNHDIALLELDEPLVLNSYVTPICIADKEYTNIFLKFGSGYVSGWGRVFHKGYSALVLQYLRVPLVDRATCLESTKFTIYNNMFCAGFHEGGRDSCQGDSGGPHVTEVEGTSFLTGIISWGEECAMKGKYGIYTKVSEYVNWIKNKTKLT |  |  |  | 258 |  | 1.2e+08 | > 517 | 517 | 0.0558 | 7.1 | 6.1
FIXa-K228N/R318Y/R338E/R403E/E410N (protein) chain 1: YNSGKLEEFVQGNLERECMEEKCSFEEAREVFENTERTTEFWKQYVDGDQCESNPCLNGGSCKDDINSYECWCPFGFEGKNCELDVTCNIKNGRCEQFCKNSADNKVVCSCTEGYRLAENQKSCEPAVPFPCGRVSVSQTSKLTR chain 2: VVGGEDAKPGQFPWQVVLNGKVDAFCGGSIVNEKWIVTAAHCVETGVNITVVAGEHNIEETEHTEQKRNVIRIIPHHNYNAAINKYNHDIALLELDEPLVLNSYVTPICIADKEYTNIFLKFGSGYVSGWGRVFHKGYSALVLQYLRVPLVDRATCLESTKFTIYNNMFCAGFHEGGRDSCQGDSGGPHVTEVEGTSFLTGIISWGEECAMKGKYGIYTKVSEYVNWIKNKTKLT |  |  |  | 349 | 0.0361 | 1.6e+08 | > 517 | 517 |  |  | 
